In the supplement of paper PMC10065799, “High-throughput profiling of sequence recognition by tyrosine kinases and SH2 domains using bacterial peptide display” (eLife, 2023):

Experiments:
c-Src SH2 = assay: SH2 binding enrichment of the phosphorylated peptide, bacterial display (enrichment ratio); higher = better substrate or ligand; peptides without Tyr show the background
SHP2-C SH2 = assay: as above
Grb2 SH2 = Grb2 SH2 (UniProt P62993); assay: as above
c-Src = assay: phosphorylation enrichment, bacterial display (enrichment ratio); higher = better substrate or ligand; peptides without Tyr show the background
MERTK = MERTK (UniProt Q12866); assay: as above
Jak2 = Jak2 (UniProt O60674); assay: as above
EPHB2 = EPHB2 (UniProt P29323); assay: as above
EPHB1 = EPHB1 (UniProt P54762); assay: as above
Fer (mouse) = assay: as above
AncSZ = assay: as above
Fyn = Fyn (UniProt P06241); assay: as above
FGFR3 = FGFR3 (UniProt P22607); assay: as above
Hck = Hck (UniProt P08631); assay: as above
FGFR1 = FGFR1 (UniProt P11362); assay: as above
c-Abl (mouse) = assay: as above
Fes = Fes (UniProt P07332); assay: as above
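For SH2 binding enrichment of the phosphorylated peptide, bacterial display in this document: peptide library displayed on the E. coli surface as eCPX fusions, selected cells deep-sequenced, score is each peptide's frequency after selection divided by its frequency in the input.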
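For phosphorylation enrichment, bacterial display in this document: 11-residue human phosphosite peptides and single-mutation variants displayed on the E. coli surface, counted by deep sequencing, each peptide's frequency after selection divided by its frequency in the unselected input library; frequency after pTyr selection over input frequency; kinase dosed for 20-30% of maximal phosphorylation in three min.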

Chain of EPHB1 (P54762 whole entry, looked up): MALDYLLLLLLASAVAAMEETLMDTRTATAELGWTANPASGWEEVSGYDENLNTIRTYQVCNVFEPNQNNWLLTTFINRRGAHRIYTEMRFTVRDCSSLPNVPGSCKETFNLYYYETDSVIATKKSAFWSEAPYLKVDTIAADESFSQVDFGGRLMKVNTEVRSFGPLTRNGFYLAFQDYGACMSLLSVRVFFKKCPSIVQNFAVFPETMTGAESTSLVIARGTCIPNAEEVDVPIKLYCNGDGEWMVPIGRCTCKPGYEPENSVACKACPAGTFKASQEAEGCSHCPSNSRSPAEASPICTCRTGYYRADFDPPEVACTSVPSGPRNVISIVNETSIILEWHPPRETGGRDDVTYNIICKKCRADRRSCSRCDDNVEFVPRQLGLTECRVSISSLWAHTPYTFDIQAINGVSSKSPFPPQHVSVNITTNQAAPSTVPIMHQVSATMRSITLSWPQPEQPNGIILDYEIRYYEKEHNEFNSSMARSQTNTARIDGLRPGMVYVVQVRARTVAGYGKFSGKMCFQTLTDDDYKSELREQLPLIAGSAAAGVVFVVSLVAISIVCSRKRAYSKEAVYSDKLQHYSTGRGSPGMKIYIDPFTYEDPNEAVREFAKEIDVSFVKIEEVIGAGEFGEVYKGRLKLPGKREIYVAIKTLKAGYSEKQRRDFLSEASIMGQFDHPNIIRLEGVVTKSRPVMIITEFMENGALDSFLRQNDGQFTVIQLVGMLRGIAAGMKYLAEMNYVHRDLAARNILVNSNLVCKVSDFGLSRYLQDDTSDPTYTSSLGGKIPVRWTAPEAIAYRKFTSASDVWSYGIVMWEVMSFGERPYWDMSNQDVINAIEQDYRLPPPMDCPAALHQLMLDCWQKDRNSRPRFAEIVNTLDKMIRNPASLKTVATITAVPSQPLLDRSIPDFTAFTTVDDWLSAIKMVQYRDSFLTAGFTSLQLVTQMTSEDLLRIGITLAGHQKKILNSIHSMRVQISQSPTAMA
Chain of Fyn (P06241 whole entry, looked up): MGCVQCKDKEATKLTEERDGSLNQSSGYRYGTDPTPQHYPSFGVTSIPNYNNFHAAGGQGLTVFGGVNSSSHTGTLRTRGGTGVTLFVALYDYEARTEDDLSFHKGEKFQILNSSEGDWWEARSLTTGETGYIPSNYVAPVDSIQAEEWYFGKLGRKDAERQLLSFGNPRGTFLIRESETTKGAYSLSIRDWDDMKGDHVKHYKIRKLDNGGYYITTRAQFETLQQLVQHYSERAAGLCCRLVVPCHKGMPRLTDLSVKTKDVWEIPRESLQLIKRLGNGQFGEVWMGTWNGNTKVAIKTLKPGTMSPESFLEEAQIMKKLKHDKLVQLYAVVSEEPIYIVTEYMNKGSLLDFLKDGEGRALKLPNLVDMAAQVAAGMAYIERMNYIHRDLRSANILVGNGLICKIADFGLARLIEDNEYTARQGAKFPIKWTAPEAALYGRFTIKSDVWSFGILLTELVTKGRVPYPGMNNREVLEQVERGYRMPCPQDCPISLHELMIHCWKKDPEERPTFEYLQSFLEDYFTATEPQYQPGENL
Chain of MERTK (Q12866 whole entry, looked up): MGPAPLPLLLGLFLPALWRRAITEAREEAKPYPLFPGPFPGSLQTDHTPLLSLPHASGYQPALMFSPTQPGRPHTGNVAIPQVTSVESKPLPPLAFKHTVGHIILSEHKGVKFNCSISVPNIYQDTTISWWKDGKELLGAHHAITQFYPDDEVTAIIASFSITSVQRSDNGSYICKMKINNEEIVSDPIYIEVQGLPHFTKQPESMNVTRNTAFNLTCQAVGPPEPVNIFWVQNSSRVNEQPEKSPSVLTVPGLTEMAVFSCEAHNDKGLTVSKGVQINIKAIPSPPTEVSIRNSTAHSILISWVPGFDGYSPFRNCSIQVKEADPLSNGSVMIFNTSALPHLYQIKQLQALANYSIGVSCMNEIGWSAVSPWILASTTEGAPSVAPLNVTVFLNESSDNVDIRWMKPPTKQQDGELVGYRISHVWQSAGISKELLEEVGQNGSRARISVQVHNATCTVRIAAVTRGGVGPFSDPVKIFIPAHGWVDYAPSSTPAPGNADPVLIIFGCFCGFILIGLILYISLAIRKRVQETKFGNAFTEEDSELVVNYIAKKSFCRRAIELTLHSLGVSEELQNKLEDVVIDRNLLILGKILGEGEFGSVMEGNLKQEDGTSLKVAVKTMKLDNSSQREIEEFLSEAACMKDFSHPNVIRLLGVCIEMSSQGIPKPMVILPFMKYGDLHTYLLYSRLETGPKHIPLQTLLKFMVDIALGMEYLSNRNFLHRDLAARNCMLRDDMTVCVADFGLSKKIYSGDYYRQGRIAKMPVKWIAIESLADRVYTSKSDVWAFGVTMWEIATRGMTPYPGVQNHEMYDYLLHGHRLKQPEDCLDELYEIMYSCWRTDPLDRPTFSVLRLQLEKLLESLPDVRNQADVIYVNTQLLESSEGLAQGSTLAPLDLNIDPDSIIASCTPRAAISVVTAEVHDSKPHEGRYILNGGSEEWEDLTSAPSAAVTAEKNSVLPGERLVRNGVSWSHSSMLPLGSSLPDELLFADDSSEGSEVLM
Chain of FGFR3 (P22607 whole entry, looked up): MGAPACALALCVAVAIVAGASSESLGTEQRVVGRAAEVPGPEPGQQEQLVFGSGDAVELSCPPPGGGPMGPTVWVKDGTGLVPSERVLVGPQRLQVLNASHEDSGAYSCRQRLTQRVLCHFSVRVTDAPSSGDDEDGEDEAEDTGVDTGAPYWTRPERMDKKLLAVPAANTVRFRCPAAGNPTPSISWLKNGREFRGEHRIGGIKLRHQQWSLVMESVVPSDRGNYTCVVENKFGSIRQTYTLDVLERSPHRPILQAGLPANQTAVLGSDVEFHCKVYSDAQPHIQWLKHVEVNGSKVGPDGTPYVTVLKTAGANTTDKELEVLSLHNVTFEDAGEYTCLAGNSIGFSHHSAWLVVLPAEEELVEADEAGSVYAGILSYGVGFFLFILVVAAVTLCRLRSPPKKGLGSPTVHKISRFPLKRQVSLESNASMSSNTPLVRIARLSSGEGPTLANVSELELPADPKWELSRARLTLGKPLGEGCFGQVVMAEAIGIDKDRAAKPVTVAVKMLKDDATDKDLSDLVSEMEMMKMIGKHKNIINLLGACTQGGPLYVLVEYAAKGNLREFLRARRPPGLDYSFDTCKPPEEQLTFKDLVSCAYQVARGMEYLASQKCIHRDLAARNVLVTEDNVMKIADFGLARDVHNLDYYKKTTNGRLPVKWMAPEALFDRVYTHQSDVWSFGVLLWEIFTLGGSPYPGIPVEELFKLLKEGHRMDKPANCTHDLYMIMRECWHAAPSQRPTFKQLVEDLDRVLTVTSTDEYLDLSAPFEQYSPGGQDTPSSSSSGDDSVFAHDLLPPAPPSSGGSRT
Chain of FGFR1 (P11362 whole entry, looked up): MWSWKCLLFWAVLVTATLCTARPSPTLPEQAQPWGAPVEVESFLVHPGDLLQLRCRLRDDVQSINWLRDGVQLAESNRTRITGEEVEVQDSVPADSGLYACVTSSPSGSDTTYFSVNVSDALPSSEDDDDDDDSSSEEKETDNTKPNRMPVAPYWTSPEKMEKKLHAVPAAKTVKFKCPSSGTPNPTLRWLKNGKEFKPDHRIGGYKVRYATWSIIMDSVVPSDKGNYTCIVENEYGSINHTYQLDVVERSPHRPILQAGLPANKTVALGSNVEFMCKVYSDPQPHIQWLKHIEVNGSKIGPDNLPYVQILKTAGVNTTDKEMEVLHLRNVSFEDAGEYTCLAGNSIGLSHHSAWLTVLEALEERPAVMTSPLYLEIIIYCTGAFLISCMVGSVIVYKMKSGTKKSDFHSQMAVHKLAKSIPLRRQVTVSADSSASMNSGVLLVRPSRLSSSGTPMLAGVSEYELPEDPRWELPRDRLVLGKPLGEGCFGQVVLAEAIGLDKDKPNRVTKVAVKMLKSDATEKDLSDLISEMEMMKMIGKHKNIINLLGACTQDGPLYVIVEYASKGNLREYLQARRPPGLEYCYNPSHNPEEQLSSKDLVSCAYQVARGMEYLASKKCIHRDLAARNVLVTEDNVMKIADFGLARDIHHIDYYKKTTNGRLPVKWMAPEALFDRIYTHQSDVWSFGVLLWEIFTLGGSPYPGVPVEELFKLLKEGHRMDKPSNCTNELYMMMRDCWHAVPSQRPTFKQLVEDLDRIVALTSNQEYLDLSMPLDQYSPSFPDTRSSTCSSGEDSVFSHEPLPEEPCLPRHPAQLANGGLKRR
Chain of Grb2 SH2 (P62993 whole entry, looked up): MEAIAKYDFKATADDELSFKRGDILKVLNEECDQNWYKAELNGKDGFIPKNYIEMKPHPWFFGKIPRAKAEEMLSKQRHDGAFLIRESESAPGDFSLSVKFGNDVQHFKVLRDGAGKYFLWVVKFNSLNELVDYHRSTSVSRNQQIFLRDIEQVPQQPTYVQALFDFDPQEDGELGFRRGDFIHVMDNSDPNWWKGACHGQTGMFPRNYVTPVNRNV
Chain of Hck (P08631 whole entry, looked up): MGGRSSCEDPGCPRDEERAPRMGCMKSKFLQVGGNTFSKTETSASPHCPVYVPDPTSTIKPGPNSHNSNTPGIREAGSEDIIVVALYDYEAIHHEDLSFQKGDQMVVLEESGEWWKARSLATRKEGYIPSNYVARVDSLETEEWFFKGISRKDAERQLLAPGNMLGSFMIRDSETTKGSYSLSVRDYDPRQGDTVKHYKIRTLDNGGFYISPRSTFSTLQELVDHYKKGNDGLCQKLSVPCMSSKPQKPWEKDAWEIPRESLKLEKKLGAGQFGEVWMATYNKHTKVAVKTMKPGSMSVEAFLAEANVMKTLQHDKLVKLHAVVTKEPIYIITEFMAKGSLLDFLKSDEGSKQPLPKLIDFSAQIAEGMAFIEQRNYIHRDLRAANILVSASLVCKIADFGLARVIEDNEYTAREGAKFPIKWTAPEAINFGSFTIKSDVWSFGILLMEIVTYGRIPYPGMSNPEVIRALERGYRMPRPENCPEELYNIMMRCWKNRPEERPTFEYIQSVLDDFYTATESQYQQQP

Row | Sequence | SH2 binding enrichment (c-Src SH2) | SH2 binding enrichment (SHP2-C SH2) | SH2 binding enrichment (Grb2 SH2) | phosphorylation enrichment (c-Src) | phosphorylation enrichment (MERTK) | phosphorylation enrichment (Jak2) | phosphorylation enrichment (EPHB2) | phosphorylation enrichment (EPHB1) | phosphorylation enrichment (Fer (mouse)) | phosphorylation enrichment (AncSZ) | phosphorylation enrichment (Fyn) | phosphorylation enrichment (FGFR3) | phosphorylation enrichment (Hck) | phosphorylation enrichment (FGFR1) | phosphorylation enrichment (c-Abl (mouse)) | phosphorylation enrichment (Fes)
1 | LEISPYMLSGP [LRRK2_Y1718_R1723P] | 0.517 | 0.465 | 0.904 | 3.58 | 1.97 | 1.35 | 0.633 | 0.753 | 2.63 | 1.53 | 3.67 | 0.983 | 1.1 | 0.921 | 0.866 | 1.16
2 | LEITWYPFDME [RIPOR2_Y316_V320M] | 0.591 | 1.04 | 0.951 | 0.554 | 0.608 | 2.05 | 0.792 | 1.21 | 0.751 | 1.85 | 0.594 | 1.48 | 0.66 | 0.698 | 1.32 | 2.31
3 | LEPHIYAVADV [MYO9A_Y216] | 3.29 | 0.789 | 0.979 | 2.11 | 1.28 | 0.741 | 1.2 | 0.822 | 1.64 | 0.926 | 1.74 | 0.616 | 1.6 | 0.469 | 14.1 | 1.02
4 | LEQDEYALRSH [HADHB_Y244] | 0.504 | 0.576 | 0.755 | 0.96 | 0.724 | 2.54 | 1.69 | 1.01 | 0.669 | 1.98 | 0.793 | 1.08 | 1.08 | 0.891 | 1.9 | 1.75
5 | LEVETYRRLLD [KRT12_Y429_I426V] | 0.467 | 0.64 | 0.843 | 0.349 | 0.344 | 0.749 | 0.407 | 0.491 | 0.439 | 0.676 | 0.421 | 0.625 | 0.511 | 0.396 | 0.551 | 0.797
6 | LFDHIYTTQSD [RET_Y928] | 0.583 | 0.796 | 0.925 | 4.92 | 1.96 | 1.81 | 2 | 1.28 | 6.22 | 2.46 | 7.45 | 3.56 | 5.93 | 2.9 | 0.821 | 3.19
7 | LGIDRYHAIVY [NPSR1_Y147_S143G] | 5.09 | 0.818 | 0.823 | 0.621 | 0.446 | 0.775 | 0.523 | 0.443 | 0.408 | 0.717 | 0.442 | 1.84 | 0.683 | 2.82 | 0.437 | 0.814
8 | LGLTVYADCLA [ABCA4_Y2063] | 0.564 | 0.553 | 0.918 | 0.473 | 0.369 | 0.992 | 0.657 | 0.686 | 0.584 | 1.14 | 0.589 | 0.78 | 0.515 | 0.618 | 0.815 | 1.39
9 | LGSWTYPKTVS [ROS1_Y144_T145P] | 0.496 | 0.805 | 0.813 | 0.415 | 0.664 | 0.734 | 0.432 | 0.402 | 0.453 | 0.85 | 0.741 | 0.604 | 0.577 | 0.842 | 0.732 | 1.12
10 | LIPIKYKAMKK [MYD88_Y257] | 0.602 | 0.974 | 0.908 | 0.302 | 0.413 | 0.297 | 0.384 | 0.55 | 0.405 | 0.388 | 0.489 | 0.92 | 0.342 | 0.755 | 0.325 | 0.96
11 | LIYTNYEAGKD [GSTP1_Y112] | 0.503 | 0.568 | 1.09 | 7.03 | 7.41 | 0.88 | 8.11 | 6.63 | 5.02 | 1.23 | 7.8 | 1.64 | 5.36 | 1.78 | 7.84 | 1.01
12 | LKLWDYRRGRC [WDR5B_Y239_S240R] | 0.415 | 0.399 | 0.705 | 0.672 | 0.708 | 0.683 | 0.857 | 0.664 | 0.605 | 0.871 | 0.604 | 0.699 | 0.541 | 0.681 | 0.728 | 0.757
13 | LKVKAYRFSIS [LCT_Y974] | 0.713 | 0.641 | 1.25 | 0.463 | 0.493 | 1.3 | 0.498 | 0.672 | 0.52 | 0.911 | 0.648 | 0.835 | 0.6 | 0.9 | 0.824 | 1.22
14 | LLIMEYAKFGS [RET_Y806_V804M_YF] | 0.929 | 0.655 | 1.35 | 1.96 | 0.701 | 2.11 | 0.968 | 1.07 | 0.909 | 1.34 | 1.09 | 0.697 | 1.59 | 0.772 | 1.51 | 1.77
15 | LLKKMYLMLDN [STAT1_Y203] | 0.957 | 1.24 | 1.14 | 0.305 | 0.401 | 0.939 | 0.381 | 0.571 | 0.521 | 0.883 | 0.38 | 0.721 | 0.434 | 0.395 | 0.643 | 0.996
16 | LLSVAYKNVVR [YWHAZ_Y48_G53R] | 0.475 | 0.566 | 0.827 | 0.743 | 0.689 | 1.1 | 0.88 | 0.874 | 0.55 | 1.28 | 0.762 | 0.853 | 0.477 | 1.03 | 1.2 | 1.34
